Experimental data published in the supplement of paper PMC12636428.

Tested on: Saccharomyces cerevisiae
Assay: transcriptional activation domain activity (GFP:mCherry ratio, weighted mean of sorted bins, harmonized to initial dataset scale) (arbitrary fluorescence ratio units); higher = stronger transcriptional activation
Details: beta-estradiol 1 µM; induction time 4 h
In short: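 Yeast diploids with a GFP reporter received barcoded protein tiles, fused to an estradiol-inducible synthetic transcription factor, at the URA3 locus. Cultures were diluted 1:5 into SC holding 1 uM beta-estradiol, incubated 4 hours at 30 °C, sorted into 8 bins on GFP:mCherry ratio, and sequenced for barcodes, with tiles under 50 reads discarded. Activation activity values come from the read-weighted mean of bin median fluorescence, averaged across barcodes and linearly placed on the initial dataset scale.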

Row | Sequence | transcriptional activation domain activity
1 | YQKLLVDARQAAEMFFKMLHYELWTHLLERLLRLRQMCNHWSLCKKKGMENCR | 54300
2 | IVLGFLPIKSWQQHCFYIIMSFGSFVSTAFYSRFVELWGLLWPLWYLTILICV | 42600
3 | SDYGLHLRHVLLLSPTIFPIIFAALMGRCFRSIGLYRAERGISLIRLEQLIGC | 55900
4 | KQYCVRPNSGRIEPGKDVEVQVLLQAMKEDPAPDAKCRDKFLVQSVAVTADKE | 44600
5 | STTLPAVDNNNLFDAVASPLADPLCDDIAGNSLPFDNSIDLDNWRNPEAQSGL | 71400
6 | MSFFLSFFVLFCFYFYFTPCLFFSSHLLTFFFFSDSPLFVFYFFYFFFSSFVY | 67700
7 | TGAPIRLVAEKAEEQEQDQEGEAPAQDQAQDQEQTQDQGQARAQAGTKAQATK | 8780
8 | PAAATPAVSIGLIYLIIMAFFSFSFFLPIHMKYIQPQGHPPLHFWQLIIWRWL | 52700
9 | ESLREIGLTSVRDIITRHASEQAILTVVDFPLRVLAMIAQIRCGLWVRNGFVI | 77800
10 | MGVLSFRFLFWSFFFLSVMFLFLFFVFLLGYWFWFWFWLLVWLLVGFCCLVFF | 38500
11 | DSSEEDSEDEKPKAVQVKAIAKASSSSDSDDSSSEDDAPSKSVVAAAKKVSPS | 22200
12 | SFPIRHIEDKLRNKGHVKTGILSANDGVPPTPNLLDYDWNNLNITGYEWISSE | 93900
13 | MDGGLFCVSISLVHFLLLLFPSHPLILRLIFLLFTFHFPVRLYFNFVLLQLLT | 67900
14 | ALNDPSILETLSPFFQPFGVDVAHLPMTNPPIFQSSLPGCDEPIRRRRISISN | 81300
15 | MLRITLRVSIFLGYFPLFGWCAGFCFFRPFFFFFFACFRARWAFFFPSIRFFY | 37300
16 | KKEEVKQEPTPAAAPEASTSDRGRGRGRGRGEGRGRGDGTRGRGRGGARPAGP | 34900
17 | KQYCVRPNSGRIEAGKEVEVQVLLQAMKEDPPPDARCRDKFLVQSVAVTADQE | 37200
18 | RVHPTCLKEFGTADFICGQCNSIYRSGRFLRIARCICLMCHLLSLASTVGLIF | 57300
19 | IIKLLVFTLWVLDSMHLILCTIAIYWYLIRNFNNTTNLQLNHWSMNLQTDCNG | 43600
20 | MEILKLPFYILHVLPLPIRGALATLTPLVRFHTVVVSLSCLLSLRCIYLLFFH | 75300
21 | DAAAEKSGNDVSEKSSGPRAKRRKVDPELDTVDEEPKKQRSKKRVKVSVPNGI | 45800

Row | Sequence | transcriptional activation domain activity
22 | LVMAHYLYANACAKGEHLIVTTWDMYYEKWGFMLIFWNMAGVPLSYCHCTLYL | 65300
23 | MLLLSPFFPFLLPSSLSFFFPFPFISTLLSFCLSDTLFNLARSFFIAFLSTLF | 42600
24 | KGGRKCKKGRAGEEAGMPARRRKGGERGGRGGKTGARGGEEGGGGEGGAARNG | 34800
25 | KRVKKEETVEKKPAVETEAPKKRGRKAAVSASAEEPKAAPAKRSRRKVSATAA | 13300
26 | HSPEAANAALRAMDGHSLEGHALKIQGSHRGADAAEERRKEDAAKKATGTKIL | 44000
27 | GANADELGHIIVTRRNRFWKIKGIVGGRILSMPELERWTLFVLLMCFRLHIYP | 23900
28 | MLLGRHIFLYFILSFFLSFWLHTIPYLLLDFTYYHNPIISTLPTSYFFSIFLI | 72200
29 | CLAGKDLFGTLFGLRVIIQVVGILMSIPHTLVVTTRWIRRMLLVYFLDQLYYT | 80600
30 | MPLPLIFVYLSGQMLSFLGSLFGVYMYFASLVLNYLGLFSSLRLRLWSFFLTA | 66200
31 | EDAGDDAAPSAKKANVSKKRKKADESDGENDKPVKTPKTKLKLTTKTPKEPSA | 36100
32 | PIARESSSLFLANTPYLSDFLTMGSSYGGSGGFAKSITADPSLDYFNYKNHSH | 68600
33 | PKADGDAEPKPKAPRGTKRKAAEETNGAEEGGEAPAAKKAKPASKAKPASKAA | 16400
34 | TFSNGEGERVSAWDARETEDGGREIFIEGEEVRVVVVQIRDGRVADWKGAVRD | 30200
35 | HSLGSNASIDHLYTYTHAYIYTLYIWLPKMFSFFPFAIIFFLCMLLLFFIFIF | 64600
36 | EQDNVDSTQQSSTGRVKRSREDSASGERLRSTSRSRSKSPSGRHKRSRRHRRS | 36100
37 | APFFLPPFHFFFPFFPFPFFLGSFPFLFSFPFPFSFPFFLFHFPSFFPFLPSF | 65400
38 | RDEAGGGARRESKKAGARRGRTAEKRGGRGHEGRRQEGGKATKAEGGAEGEGE | 46500
39 | VLYPLWPLKMRQGVYYLSWGFLCLLGLFFLMAIFRVILFCITYFVVSPGLWLF | 34400
40 | GSMGKVKLGVSSISGEKVAIKIIPRFTSTAAAHRPPPPTPSNEPSGSSRRPSS | 7050
41 | KANSKAKLSKKDESSDESESDSEDEKPAPKANGKQVCCAVPLAIFFIALLTKY | 57400
42 | GKVFILLRIWFFRQRSLSLYRTLLSSYLVERSPLFTSTMGVFGLDRKLLVKTA | 62500

Row | Sequence | transcriptional activation domain activity
43 | VAAFAVFCSIEARGSLYVFSVDAVKRVGRRIKHFWHGVWTVLRTAVLLCTCGR | 77400
44 | SSRYDPVKSVFLPLDPMPLPRDFFFSFALILFCPSPFYTSLLSLYLISPLLFP | 60800
45 | RYWTFMTFLSIFLSIFACFLWIAVYSLFPTFFFDWELIILYSTMNFWATVVVV | 51700
46 | FSFFHPLHFLPWLLYPSPLISLFFLSFFILFSFFVFFFSCPFFLSLFHIFFPV | 33000
47 | SNYSNLATRAPSGPPQFLVNNVIQHWGGVDGWIKWILKIRKAYILRRDVFLAT | 56800
48 | GRNAGREDNSNNRNRRGDRRGAPREARAGGNTNGQQQQQQKKGGAPKAAAVDP | 35600
49 | GLNPLRTTLMMSLNIIRSLFPAFRGYSQALIVDELQSLIASESFTWSRLLWLM | 57900
50 | AARVSDYSMAQFRFLLKFLLVHGRWNYVRICKYTVGTFWKELLFYLTQALFQR | 48200
51 | VILYLLMLIGNVTVVSWIVSLFFLSRKSYLKLGFKMVLVRKWYFKNVCQYVDY | 67400
52 | LLFFSLSLFKKKYLPFILFFFFFYSSLFFFFYPFLFNFFSFFLIFFFFFSLQV | 34300
53 | GGAAGARKGAKRPKRAVGGAAAAAGGKKSADSDDEKPKEKSAPSGGGSKVGGI | 36600
54 | MFCLRSWLPLLFIPTNASPVFILLFFIGTYFLNRPCVYCSLLLLILFSTSCVW | 39400
55 | AIAEYKWVHLKKGAELTLIDVYDGCTRGLSGFSLTIRAMHFDFVLLVAFLFHL | 50400
56 | GKRAGAKGKKEASKKKKSQGSSRKGSGKGKKGNGGKGKNGGGKDKGKKSGKKG | 21800
57 | CKAHCGYILGHINIFQPLNWIFVKSSKVFPIDYILYLLLVLFFFCSSVVGIAT | 28100
58 | FFNILILQWRRIRCCKVVSTSLCLENTLGVAQLFVQFVLFTLIFILYMIYFPP | 48300
59 | NLMLQVVSPRIWFPSMQLIWGVLTFWWVAMPCRRIFITHILDHGIQIYAIRFF | 61400
60 | AHVTMPYLLAIACHTAGIICMWICYCACLVWCSTVLPILLIIIIILIVFLNAN | 25200
61 | YICQYHGSLIGKHFKSLMQVMPFLIYDLVAQDILCAWNIIGVLVVLLWHTEIE | 81900
62 | KIHLVNLSQVVVFFIHRILFGIIPLFEIETCAYFPLLISLWHLTYLLFYVVMF | 80700
63 | AKSLRLTIDEVKMLHRPVIWYLIVMLVDTLTATYLQYNGFLLHRTHLRETLSV | 44200

Row | Sequence | transcriptional activation domain activity
64 | RYLYAAMNLLSIINPIFSLIQFVIACFLVAGNLSLVYVRVWGPIVLLSLFLFD | 45800
65 | LCSWLIPRVLVLLGRKGCEKLMENIKALFDLFFQIIPQYPNFWCWESILLDYL | 41800
66 | MDLGEERYRRLVSYLFFSFLYLHFIFLYFSFLWFMACGSWQWLNNLFFFISSF | 63800
67 | FCFFLFLLSFSSCYFFFLLLFLPLTFSSLLFLPIYFFSSSSSSFFLPFLFVSL | 43000
68 | MSFFLFFVSCLLLFFVFVLFLFFSFRSFLSSVPFPFRFCFLFLFALSLFFLLV | 41400
69 | HHDNVNPTIPPPDNYILNNENDDGLDNLLGMDYYNIDDLLTQELRDLDIPLVP | 140000
70 | HWKLNLYFMLTNVIVVLPLYQVYIYLLGCHPKSPLYHHRVKLSVFAWSIWFYC | 36200
71 | DGDEEDAKDGRKKKKKKRLPKSPIGNPGEKLGFVILGAQHAREWVATSAALYL | 35700
72 | MRWFFLLFWVFLSFFLSLQFFSILSFVCGSLACSISLLCRFSLRGAGFCWLGG | 47600
73 | GRQSKDGKEGKEGKEGSGERRREEKKEAGRERGGEEGGKEGRGRQRAGASGGE | 25500
74 | FVCVASAIGGVGYLLLLTVAENVHVRYFATFCIVSGTYTTIGIVIAWFAHNLG | 48700
75 | MGFLFLLCVLVVWVFFRAWFFCFLFFLFLFLVLLFRYLFIYFLWSWYGGGSVG | 48000
76 | VVENHKREVQYARYHCLKSWRLTLDVCLKRAFHLVPTVGRHELLISMLQAIIG | 37300
77 | MFVLYTSGWESLHFFFPSPLVSFVLCWVLTRSLYRFLEVWVAYSVCLLLFLHV | 38600
78 | KMLLDHIKKFVITYTGGLVLACDISRYHEVIVQFKSVQVDEYFNVLKEICSLF | 53900
79 | LEDNAAPASAPAAEEKPVEKAPEEKPEKKEEPQKEEPKKEDAKQAAPKSGASQ | 46100
80 | TSCFSFLVFSFIFLSLGIMMWSLGQELLWYFVFFCLVWIFLLVVCLFIIEYSE | 32500
81 | NLLDFRKILVNVVCILVVDVVLLMSMLIGLLRYSHRNSTGLWHLLYQQCIIWL | 45000
82 | GILVLLLVYSNLVLLIYHPPTSKRPLDHLFIHVPIRLFLILPLSLMFPYSLLY | 43900
83 | MLFSLYLFFYFLFFVCDGYVTMGSVFFFCSCWWCSYYYLTINIGLTNYFFPPL | 53300
